Data reported in publication PMC11997252.

B1: Fzd4: N59/144Q (protein)
parent chain: MAWRGAGPSVPGAPGGVGLSLGLLLQLLLLLGPARGFGDEEERRCDPIRISMCQNLGYNVTKMPNLVGHELQTDAELQLTTFTPLIQYGCSSQLQFFLCSVYVPMCTEKINIPIGPCGGMCLSVKRRCEPVLKEFGFAWPESLNCSKFPPQNDHNHMCMEGPGDEEVPLPHKTPIQPGEECHSVGTNSDQYIWVKRSLNCVLKCGYDAGLYSRSAKEFTDIWMAVWASLCFISTAFTVLTFLIDSSRFSYPERPIIFLSMCYNIYSIAYIVRLTVGRERISCDFEEAAEPVLIQEGLKNTGCAIIFLLMYFFGMASSIWWVILTLTWFLAAGLKWGHEAIEMHSSYFHIAAWAIPAVKTIVILIMRLVDADELTGLCYVGNQNLDALTGFVVAPLFTYLVIGTLFIAAGLVALFKIRSNLQKDGTKTDKLERLMVKIGVFSVLYTVPATCVIACYFYEISNWALFRYSADDSNMAVEMLKIFMSLLVGITSGMWIWSAKTLHTWQKCSNRLVNSGKVKREKRGNGWVKPGKGSETVV
B2: Fzd4: N144Q (protein)
parent chain: MAWRGAGPSVPGAPGGVGLSLGLLLQLLLLLGPARGFGDEEERRCDPIRISMCQNLGYNVTKMPNLVGHELQTDAELQLTTFTPLIQYGCSSQLQFFLCSVYVPMCTEKINIPIGPCGGMCLSVKRRCEPVLKEFGFAWPESLNCSKFPPQNDHNHMCMEGPGDEEVPLPHKTPIQPGEECHSVGTNSDQYIWVKRSLNCVLKCGYDAGLYSRSAKEFTDIWMAVWASLCFISTAFTVLTFLIDSSRFSYPERPIIFLSMCYNIYSIAYIVRLTVGRERISCDFEEAAEPVLIQEGLKNTGCAIIFLLMYFFGMASSIWWVILTLTWFLAAGLKWGHEAIEMHSSYFHIAAWAIPAVKTIVILIMRLVDADELTGLCYVGNQNLDALTGFVVAPLFTYLVIGTLFIAAGLVALFKIRSNLQKDGTKTDKLERLMVKIGVFSVLYTVPATCVIACYFYEISNWALFRYSADDSNMAVEMLKIFMSLLVGITSGMWIWSAKTLHTWQKCSNRLVNSGKVKREKRGNGWVKPGKGSETVV
B3: Fzd4: N59Q (protein)
parent chain: MAWRGAGPSVPGAPGGVGLSLGLLLQLLLLLGPARGFGDEEERRCDPIRISMCQNLGYNVTKMPNLVGHELQTDAELQLTTFTPLIQYGCSSQLQFFLCSVYVPMCTEKINIPIGPCGGMCLSVKRRCEPVLKEFGFAWPESLNCSKFPPQNDHNHMCMEGPGDEEVPLPHKTPIQPGEECHSVGTNSDQYIWVKRSLNCVLKCGYDAGLYSRSAKEFTDIWMAVWASLCFISTAFTVLTFLIDSSRFSYPERPIIFLSMCYNIYSIAYIVRLTVGRERISCDFEEAAEPVLIQEGLKNTGCAIIFLLMYFFGMASSIWWVILTLTWFLAAGLKWGHEAIEMHSSYFHIAAWAIPAVKTIVILIMRLVDADELTGLCYVGNQNLDALTGFVVAPLFTYLVIGTLFIAAGLVALFKIRSNLQKDGTKTDKLERLMVKIGVFSVLYTVPATCVIACYFYEISNWALFRYSADDSNMAVEMLKIFMSLLVGITSGMWIWSAKTLHTWQKCSNRLVNSGKVKREKRGNGWVKPGKGSETVV

What was measured:
Conditions in all cases: glycan lost; control: Fzd4 WT
[1] = cycloheximide chase, Western blot, HEK293T
[2] = SNAP-tag staining with membrane-impermeant dye
[3] = surface biotinylation, streptavidin pull-down, HEK293T
[4] = plasma membrane fractionation, Western blot
[5] = immunofluorescence co-localisation with ER marker CANX

Row | Protein | degradation_or_half_life [1] | localisation_or_trafficking [2] | localisation_or_trafficking [3] | localisation_or_trafficking [4] | localisation_or_trafficking [5]
1 | B1 | decreases | abolishes | abolishes | abolishes | changes
2 | B2 | decreases | abolishes | abolishes | abolishes | 
3 | B3 | decreases | abolishes | abolishes | abolishes | 
